These results are taken from publication doi:10.1101/2025.03.09.642192 (2025).

Experiment [1] has as its target T1, purified hexon protein from ChAdOx1 (chimpanzee adenovirus Y25 (ChAdOx1)).
T1 chain: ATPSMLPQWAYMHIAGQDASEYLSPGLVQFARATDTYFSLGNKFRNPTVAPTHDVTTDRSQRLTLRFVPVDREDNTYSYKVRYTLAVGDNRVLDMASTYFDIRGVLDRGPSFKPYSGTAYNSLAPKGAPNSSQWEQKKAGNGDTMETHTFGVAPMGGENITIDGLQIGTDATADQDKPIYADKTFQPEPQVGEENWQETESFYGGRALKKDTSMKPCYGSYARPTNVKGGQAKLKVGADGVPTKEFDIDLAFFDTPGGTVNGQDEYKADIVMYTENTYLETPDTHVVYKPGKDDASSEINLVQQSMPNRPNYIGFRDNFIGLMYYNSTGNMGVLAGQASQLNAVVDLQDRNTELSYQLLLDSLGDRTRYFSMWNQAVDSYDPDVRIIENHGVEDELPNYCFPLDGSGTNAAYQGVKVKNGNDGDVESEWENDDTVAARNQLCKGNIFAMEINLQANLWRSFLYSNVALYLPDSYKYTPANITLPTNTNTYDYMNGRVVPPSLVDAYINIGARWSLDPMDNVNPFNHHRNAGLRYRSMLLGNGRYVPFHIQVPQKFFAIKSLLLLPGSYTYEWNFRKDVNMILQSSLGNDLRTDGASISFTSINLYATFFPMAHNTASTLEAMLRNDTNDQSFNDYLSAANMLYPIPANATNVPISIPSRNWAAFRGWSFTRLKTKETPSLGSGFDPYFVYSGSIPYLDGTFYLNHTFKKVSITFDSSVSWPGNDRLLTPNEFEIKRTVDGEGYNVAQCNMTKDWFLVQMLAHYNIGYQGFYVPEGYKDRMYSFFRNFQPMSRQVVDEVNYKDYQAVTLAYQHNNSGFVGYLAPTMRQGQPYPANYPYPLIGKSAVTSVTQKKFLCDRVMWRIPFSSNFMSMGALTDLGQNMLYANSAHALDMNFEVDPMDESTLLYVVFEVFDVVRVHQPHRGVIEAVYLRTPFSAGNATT
Briefly: SPR. A general note: SPR reads the build-up and loss of mass on a sensor chip optically.

The target in another experiment is T2, HAdV-C5 hexon protein (HAdV-C5, UniProt P04133 1-952).
T2 chain: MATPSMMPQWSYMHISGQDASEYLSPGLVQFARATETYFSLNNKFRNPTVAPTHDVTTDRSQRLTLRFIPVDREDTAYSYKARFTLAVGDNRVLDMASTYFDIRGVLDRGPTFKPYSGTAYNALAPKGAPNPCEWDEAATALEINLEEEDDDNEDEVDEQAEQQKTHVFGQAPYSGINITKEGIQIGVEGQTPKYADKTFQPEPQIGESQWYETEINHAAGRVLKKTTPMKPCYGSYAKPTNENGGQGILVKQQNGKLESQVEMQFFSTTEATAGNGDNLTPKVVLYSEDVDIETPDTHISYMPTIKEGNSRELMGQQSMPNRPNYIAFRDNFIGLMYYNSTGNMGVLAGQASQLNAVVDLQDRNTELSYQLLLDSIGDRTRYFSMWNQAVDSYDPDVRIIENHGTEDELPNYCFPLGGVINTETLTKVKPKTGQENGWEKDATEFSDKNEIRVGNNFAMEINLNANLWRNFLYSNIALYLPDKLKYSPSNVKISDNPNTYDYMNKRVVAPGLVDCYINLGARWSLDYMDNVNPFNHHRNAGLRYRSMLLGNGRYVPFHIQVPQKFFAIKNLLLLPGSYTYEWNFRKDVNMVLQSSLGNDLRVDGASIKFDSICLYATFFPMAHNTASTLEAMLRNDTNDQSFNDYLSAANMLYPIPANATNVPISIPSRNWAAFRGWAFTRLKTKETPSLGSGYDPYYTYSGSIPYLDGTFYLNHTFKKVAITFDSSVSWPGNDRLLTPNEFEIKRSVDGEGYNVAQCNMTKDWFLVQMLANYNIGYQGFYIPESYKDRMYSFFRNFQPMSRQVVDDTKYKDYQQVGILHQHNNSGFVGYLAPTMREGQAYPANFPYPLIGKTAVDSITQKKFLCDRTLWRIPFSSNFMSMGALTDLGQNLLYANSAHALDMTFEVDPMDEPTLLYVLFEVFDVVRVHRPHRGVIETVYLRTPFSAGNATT
Nature of the experiment: SPR.

B1: platelet factor 4 (PF4) (natural protein)
chain: EAEEDGDLQCLCVKTTSQVRPRHITSLEVIKAGPHCPTAQLIATLKNGRKICLDLQAPLYKKIIKKLLES
With B1, the koff in experiment [1] turned out to be 0.0106 s⁻¹; in the experiment with HAdV-C5 hexon protein, 0.0213 s⁻¹.

Usually koff stands for a measure of how fast the partners let go of each other. Low values mean slow dissociation, high ones fast dissociation.
